Reference: publication PMC4200526

Biological target: toluene 4-monooxygenase hydroxylase (T4moH), (TmoA-TmoB-TmoE)2, with C-terminally truncated TmoA and TmoE (UniProt Q00456)
UniProt Q00456, sequence (Q00456 1-491, chain 1 of 3): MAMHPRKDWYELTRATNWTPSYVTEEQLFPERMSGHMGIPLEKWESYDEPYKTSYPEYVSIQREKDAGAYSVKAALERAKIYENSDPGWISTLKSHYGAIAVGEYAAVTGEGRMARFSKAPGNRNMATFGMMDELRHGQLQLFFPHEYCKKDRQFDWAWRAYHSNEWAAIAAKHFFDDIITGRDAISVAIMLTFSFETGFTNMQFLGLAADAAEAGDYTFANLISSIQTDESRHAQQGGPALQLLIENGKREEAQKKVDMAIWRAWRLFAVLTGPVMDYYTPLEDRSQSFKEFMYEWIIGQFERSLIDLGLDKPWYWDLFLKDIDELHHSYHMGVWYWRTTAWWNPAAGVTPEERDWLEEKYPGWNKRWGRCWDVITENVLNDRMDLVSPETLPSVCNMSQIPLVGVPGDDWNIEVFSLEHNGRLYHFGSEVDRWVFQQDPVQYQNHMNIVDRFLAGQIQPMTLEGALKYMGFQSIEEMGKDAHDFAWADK
UniProt Q00456, sequence (Q00457 whole entry, chain 2 of 3, further chain, the tested form may be a part): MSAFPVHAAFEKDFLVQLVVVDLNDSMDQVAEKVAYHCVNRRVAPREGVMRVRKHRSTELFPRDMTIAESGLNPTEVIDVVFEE
UniProt Q00456, sequence (Q00460 1-306, chain 3 of 3, further chain): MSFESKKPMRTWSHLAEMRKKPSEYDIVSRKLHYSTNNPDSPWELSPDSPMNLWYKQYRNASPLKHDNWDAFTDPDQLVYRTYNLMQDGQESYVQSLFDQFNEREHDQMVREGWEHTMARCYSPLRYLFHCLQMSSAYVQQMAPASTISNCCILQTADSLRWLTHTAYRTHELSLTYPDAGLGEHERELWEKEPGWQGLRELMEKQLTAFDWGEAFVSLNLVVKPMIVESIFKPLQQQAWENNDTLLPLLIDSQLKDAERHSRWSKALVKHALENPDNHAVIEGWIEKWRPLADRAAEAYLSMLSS

Substance: T4moC, Rieske-type ferredoxin of toluene 4-monooxygenase, Cys7Ser/Cys84Ala/Cys85Ala variant (used for 4P1C) (from UniProt Q00458 8-112) (natural protein)
- apparent KM for T4moC in steady-state toluene hydroxylation (4 uM T4moH, 0.4 uM T4moF), before the increase caused by T4moD: 3 µM
- apparent KM for T4moC in steady-state toluene hydroxylation (4 uM T4moH, 0.4 uM T4moF), increased by inhibiting T4moD: 16 µM
